Consider one substance from PMC6349121.

As usually defined, the Kd is the free concentration of one partner at which half of the binding sites on the other are occupied at equilibrium, for simple one-to-one binding. Read a low Kd as tighter binding.

This test addresses GST-cIAP1R (cIAP1 RING domain, residues 556-C, with GST) (human) (UniProt Q13490). In words: SPR; as a1, but UbcH5B–Ub variants diluted in running buffer containing 0.6 mM UbΔGG; GST-cIAP1R coupled to a CM-5 chip, 25 °C; steady-state affinity analysis. A general note: SPR reads the build-up and loss of mass on a sensor chip optically.

The substance “UbcH5B–Ub in the presence of 0.6 mM UbΔGG (UbcH5B–Ub with backside-bound UbΔGG) (from UniProt P62837 1-147; P0CG47 1-76; P0CG47 1-74) (complex)” returned a Kd of 220 nM.
